Experimental data taken from the supplement of paper PMC10567573.

B1: KCNA3 (parent)
chain: YQSGGRIRRPVNVPIDIFSEEIRF

Variants of: B1
Assay: protein stability index of a GFP-peptide fusion (GPS, HEK-293T) (PSI 1-6); higher = more stable
Conditions: c terminus: a fixed tail appended
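Also: lentivirally expressed fusions sorted by FACS into six bins by GFP to DsRed ratio, PSI derived from sequencing read proportions per bin multiplied by bin number.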

For YQSGGRIRRPVNVPKDIFSEEIRF [I15K], which protein stability index is on record?
Its protein stability index is 2.19.

Which protein stability index does the source give for YQSGGRIRRPVNVPLDIFSEEIRF [I15L] here?
The protein stability index was 1.83.

With YQSGGRIRRPVNVPMDIFSEEIRF [I15M] as the variant, how does the protein stability index read?
The protein stability index was 2.13.

With YQSGGRIRRPVNVPNDIFSEEIRF [I15N] as the variant, how does the protein stability index read?
The protein stability index was 2.36.

With YQSGGRIRRPVNVPPDIFSEEIRF [I15P] as the variant, how does the protein stability index read?
The protein stability index was 2.03.

With YQSGGRIRRPVNVPQDIFSEEIRF [I15Q] as the variant, how does the protein stability index read?
Its protein stability index is 2.56.

For YQSGGRIRRPVNVPRDIFSEEIRF [I15R], which protein stability index is on record?
The protein stability index was 2.41.

With YQSGGRIRRPVNVPSDIFSEEIRF [I15S] as the variant, how does the protein stability index read?
The protein stability index was 2.69.

With YQSGGRIRRPVNVPTDIFSEEIRF [I15T] as the variant, how does the protein stability index read?
The protein stability index was 2.37.

For YQSGGRIRRPVNVPWDIFSEEIRF [I15W], which protein stability index is on record?
The protein stability index was 1.92.

With YQSGGRIRRPVNVPYDIFSEEIRF [I15Y] as the variant, how does the protein stability index read?
The protein stability index was 1.63.

With YQSGGRIRRPVNVPIAIFSEEIRF [D16A] as the variant, how does the protein stability index read?
Its protein stability index is 3.22.

Which protein stability index does the source give for YQSGGRIRRPVNVPICIFSEEIRF [D16C] here?
Its protein stability index is 1.41.

Which protein stability index does the source give for YQSGGRIRRPVNVPIFIFSEEIRF [D16F] here?
The protein stability index was 1.33.

With YQSGGRIRRPVNVPIGIFSEEIRF [D16G] as the variant, how does the protein stability index read?
The protein stability index was 1.73.

With YQSGGRIRRPVNVPIHIFSEEIRF [D16H] as the variant, how does the protein stability index read?
Its protein stability index is 1.84.

With YQSGGRIRRPVNVPIIIFSEEIRF [D16I] as the variant, how does the protein stability index read?
The protein stability index was 2.51.

Which protein stability index does the source give for YQSGGRIRRPVNVPIKIFSEEIRF [D16K] here?
The protein stability index was 1.8.

For YQSGGRIRRPVNVPILIFSEEIRF [D16L], which protein stability index is on record?
Its protein stability index is 1.88.

Which protein stability index does the source give for YQSGGRIRRPVNVPIMIFSEEIRF [D16M] here?
Its protein stability index is 1.73.

For YQSGGRIRRPVNVPINIFSEEIRF [D16N], which protein stability index is on record?
Its protein stability index is 2.01.

With YQSGGRIRRPVNVPIPIFSEEIRF [D16P] as the variant, how does the protein stability index read?
The protein stability index was 2.34.

For YQSGGRIRRPVNVPIQIFSEEIRF [D16Q], which protein stability index is on record?
The protein stability index was 2.61.

Which protein stability index does the source give for YQSGGRIRRPVNVPIRIFSEEIRF [D16R] here?
The protein stability index was 1.64.

For YQSGGRIRRPVNVPISIFSEEIRF [D16S], which protein stability index is on record?
Its protein stability index is 2.42.

With YQSGGRIRRPVNVPITIFSEEIRF [D16T] as the variant, how does the protein stability index read?
The protein stability index was 2.51.

With YQSGGRIRRPVNVPIVIFSEEIRF [D16V] as the variant, how does the protein stability index read?
The protein stability index was 1.19.

Which protein stability index does the source give for YQSGGRIRRPVNVPIWIFSEEIRF [D16W] here?
The protein stability index was 1.87.

For YQSGGRIRRPVNVPIYIFSEEIRF [D16Y], which protein stability index is on record?
The protein stability index was 1.39.

For YQSGGRIRRPVNVPIDAFSEEIRF [I17A], which protein stability index is on record?
Its protein stability index is 2.85.

For YQSGGRIRRPVNVPIDCFSEEIRF [I17C], which protein stability index is on record?
The protein stability index was 2.48.

For YQSGGRIRRPVNVPIDDFSEEIRF [I17D], which protein stability index is on record?
Its protein stability index is 2.34.

Which protein stability index does the source give for YQSGGRIRRPVNVPIDEFSEEIRF [I17E] here?
Its protein stability index is 3.04.

Which protein stability index does the source give for YQSGGRIRRPVNVPIDFFSEEIRF [I17F] here?
The protein stability index was 1.76.

For YQSGGRIRRPVNVPIDGFSEEIRF [I17G], which protein stability index is on record?
The protein stability index was 2.19.

With YQSGGRIRRPVNVPIDHFSEEIRF [I17H] as the variant, how does the protein stability index read?
The protein stability index was 1.91.

Which protein stability index does the source give for YQSGGRIRRPVNVPIDKFSEEIRF [I17K] here?
Its protein stability index is 2.05.

For YQSGGRIRRPVNVPIDLFSEEIRF [I17L], which protein stability index is on record?
Its protein stability index is 1.86.

With YQSGGRIRRPVNVPIDMFSEEIRF [I17M] as the variant, how does the protein stability index read?
Its protein stability index is 2.21.

Which protein stability index does the source give for YQSGGRIRRPVNVPIDNFSEEIRF [I17N] here?
The protein stability index was 2.74.

Which protein stability index does the source give for YQSGGRIRRPVNVPIDPFSEEIRF [I17P] here?
The protein stability index was 3.32.

Which protein stability index does the source give for YQSGGRIRRPVNVPIDQFSEEIRF [I17Q] here?
The protein stability index was 1.89.

For YQSGGRIRRPVNVPIDRFSEEIRF [I17R], which protein stability index is on record?
The protein stability index was 2.48.

With YQSGGRIRRPVNVPIDSFSEEIRF [I17S] as the variant, how does the protein stability index read?
The protein stability index was 2.33.

Which protein stability index does the source give for YQSGGRIRRPVNVPIDTFSEEIRF [I17T] here?
Its protein stability index is 1.97.

For YQSGGRIRRPVNVPIDVFSEEIRF [I17V], which protein stability index is on record?
Its protein stability index is 2.48.

For YQSGGRIRRPVNVPIDWFSEEIRF [I17W], which protein stability index is on record?
The protein stability index was 1.23.

With YQSGGRIRRPVNVPIDYFSEEIRF [I17Y] as the variant, how does the protein stability index read?
The protein stability index was 2.79.

With YQSGGRIRRPVNVPIDIASEEIRF [F18A] as the variant, how does the protein stability index read?
The protein stability index was 2.68.

With YQSGGRIRRPVNVPIDICSEEIRF [F18C] as the variant, how does the protein stability index read?
The protein stability index was 2.36.

With YQSGGRIRRPVNVPIDIDSEEIRF [F18D] as the variant, how does the protein stability index read?
The protein stability index was 2.3.

For YQSGGRIRRPVNVPIDIESEEIRF [F18E], which protein stability index is on record?
The protein stability index was 3.23.

For YQSGGRIRRPVNVPIDIGSEEIRF [F18G], which protein stability index is on record?
The protein stability index was 2.49.

Which protein stability index does the source give for YQSGGRIRRPVNVPIDIHSEEIRF [F18H] here?
The protein stability index was 2.29.

For YQSGGRIRRPVNVPIDIISEEIRF [F18I], which protein stability index is on record?
Its protein stability index is 1.49.

Which protein stability index does the source give for YQSGGRIRRPVNVPIDIKSEEIRF [F18K] here?
Its protein stability index is 1.99.

For YQSGGRIRRPVNVPIDILSEEIRF [F18L], which protein stability index is on record?
The protein stability index was 2.63.

For YQSGGRIRRPVNVPIDIMSEEIRF [F18M], which protein stability index is on record?
The protein stability index was 2.35.

With YQSGGRIRRPVNVPIDINSEEIRF [F18N] as the variant, how does the protein stability index read?
Its protein stability index is 3.17.

Which protein stability index does the source give for YQSGGRIRRPVNVPIDIPSEEIRF [F18P] here?
Its protein stability index is 2.55.

With YQSGGRIRRPVNVPIDIQSEEIRF [F18Q] as the variant, how does the protein stability index read?
The protein stability index was 1.81.

Which protein stability index does the source give for YQSGGRIRRPVNVPIDIRSEEIRF [F18R] here?
The protein stability index was 2.11.

With YQSGGRIRRPVNVPIDISSEEIRF [F18S] as the variant, how does the protein stability index read?
The protein stability index was 2.8.

For YQSGGRIRRPVNVPIDITSEEIRF [F18T], which protein stability index is on record?
The protein stability index was 2.4.

With YQSGGRIRRPVNVPIDIVSEEIRF [F18V] as the variant, how does the protein stability index read?
The protein stability index was 2.41.

With YQSGGRIRRPVNVPIDIYSEEIRF [F18Y] as the variant, how does the protein stability index read?
The protein stability index was 2.2.

For YQSGGRIRRPVNVPIDIFAEEIRF [S19A], which protein stability index is on record?
Its protein stability index is 1.83.

For YQSGGRIRRPVNVPIDIFCEEIRF [S19C], which protein stability index is on record?
Its protein stability index is 1.39.

For YQSGGRIRRPVNVPIDIFDEEIRF [S19D], which protein stability index is on record?
Its protein stability index is 2.43.

With YQSGGRIRRPVNVPIDIFEEEIRF [S19E] as the variant, how does the protein stability index read?
The protein stability index was 1.87.

With YQSGGRIRRPVNVPIDIFFEEIRF [S19F] as the variant, how does the protein stability index read?
The protein stability index was 1.51.

With YQSGGRIRRPVNVPIDIFGEEIRF [S19G] as the variant, how does the protein stability index read?
Its protein stability index is 2.52.

Which protein stability index does the source give for YQSGGRIRRPVNVPIDIFHEEIRF [S19H] here?
Its protein stability index is 1.49.

Which protein stability index does the source give for YQSGGRIRRPVNVPIDIFIEEIRF [S19I] here?
The protein stability index was 1.85.

With YQSGGRIRRPVNVPIDIFKEEIRF [S19K] as the variant, how does the protein stability index read?
Its protein stability index is 1.54.

With YQSGGRIRRPVNVPIDIFLEEIRF [S19L] as the variant, how does the protein stability index read?
Its protein stability index is 1.41.

For YQSGGRIRRPVNVPIDIFNEEIRF [S19N], which protein stability index is on record?
The protein stability index was 2.74.

Which protein stability index does the source give for YQSGGRIRRPVNVPIDIFPEEIRF [S19P] here?
Its protein stability index is 1.73.

For YQSGGRIRRPVNVPIDIFQEEIRF [S19Q], which protein stability index is on record?
The protein stability index was 1.68.

With YQSGGRIRRPVNVPIDIFREEIRF [S19R] as the variant, how does the protein stability index read?
Its protein stability index is 1.64.

With YQSGGRIRRPVNVPIDIFTEEIRF [S19T] as the variant, how does the protein stability index read?
Its protein stability index is 2.6.

With YQSGGRIRRPVNVPIDIFYEEIRF [S19Y] as the variant, how does the protein stability index read?
The protein stability index was 2.4.

Which protein stability index does the source give for YQSGGRIRRPVNVPIDIFSAEIRF [E20A] here?
Its protein stability index is 2.06.

With YQSGGRIRRPVNVPIDIFSCEIRF [E20C] as the variant, how does the protein stability index read?
The protein stability index was 2.19.

For YQSGGRIRRPVNVPIDIFSDEIRF [E20D], which protein stability index is on record?
The protein stability index was 2.26.

Which protein stability index does the source give for YQSGGRIRRPVNVPIDIFSFEIRF [E20F] here?
Its protein stability index is 2.93.

With YQSGGRIRRPVNVPIDIFSGEIRF [E20G] as the variant, how does the protein stability index read?
Its protein stability index is 1.37.

For YQSGGRIRRPVNVPIDIFSHEIRF [E20H], which protein stability index is on record?
The protein stability index was 2.04.

With YQSGGRIRRPVNVPIDIFSKEIRF [E20K] as the variant, how does the protein stability index read?
Its protein stability index is 2.29.

Which protein stability index does the source give for YQSGGRIRRPVNVPIDIFSMEIRF [E20M] here?
Its protein stability index is 1.96.

Which protein stability index does the source give for YQSGGRIRRPVNVPIDIFSNEIRF [E20N] here?
The protein stability index was 2.52.

With YQSGGRIRRPVNVPIDIFSPEIRF [E20P] as the variant, how does the protein stability index read?
Its protein stability index is 2.11.

Which protein stability index does the source give for YQSGGRIRRPVNVPIDIFSQEIRF [E20Q] here?
The protein stability index was 1.68.

Which protein stability index does the source give for YQSGGRIRRPVNVPIDIFSREIRF [E20R] here?
Its protein stability index is 1.61.
